In patent US7407939:
Blank lines part the entries; values can stand above or below the binder they belong to. Where no end group is shown, it is not given here. Side-chain parts run from the residue outwards. [ ]: non-standard residue; d: D form. The star is where a group is joined. O‑CO‑N‑SO2‑IQ = carbamate-linked N-sulfonyl 5-aminoethylsulfonamide isoquinoline (O-CO-N-SO2-IQ); SO2‑IQ = 5-aminoethylsulfoneamide isoquinoline, O=S(=O)(NCCN*)c1cccc2cnccc12; X1 = 5‑aminoethylsulfonamide isoquinoline, O=S(=O)(NCCN*)c1cccc2cnccc12; S‑IQ = 5-mercaptoaminopropyl isoquinoline; hLeu = CC(C)CC[C@H](N)C(=O)O; GltNH2 = not defined here; Nle = CCCC[C@H](N)C(=O)O; Orn = NCCC[C@H](N)C(=O)O; bGaba = not defined here; Dab = NCC[C@H](N)C(=O)O; Nva = CCC[C@H](N)C(=O)O; Abu = CC[C@H](N)C(=O)O; Dap = NC[C@H](N)C(=O)O; Ph2 = not defined here; GlyNH2 = aminoglycine; Ava = NCCCCC(=O)O; βAla = NCCC(=O)O

What was measured:
Assay in all cases: cell-based or functional assay
protein kinase B, P31749 = molecular target: protein kinase B, P31749
protein kinase B = protein kinase B (UniProt P31749)
[1] = molecular target: protein kinase A, catalytic subunit

protein kinase B, P31749, sequence (P31749 whole entry): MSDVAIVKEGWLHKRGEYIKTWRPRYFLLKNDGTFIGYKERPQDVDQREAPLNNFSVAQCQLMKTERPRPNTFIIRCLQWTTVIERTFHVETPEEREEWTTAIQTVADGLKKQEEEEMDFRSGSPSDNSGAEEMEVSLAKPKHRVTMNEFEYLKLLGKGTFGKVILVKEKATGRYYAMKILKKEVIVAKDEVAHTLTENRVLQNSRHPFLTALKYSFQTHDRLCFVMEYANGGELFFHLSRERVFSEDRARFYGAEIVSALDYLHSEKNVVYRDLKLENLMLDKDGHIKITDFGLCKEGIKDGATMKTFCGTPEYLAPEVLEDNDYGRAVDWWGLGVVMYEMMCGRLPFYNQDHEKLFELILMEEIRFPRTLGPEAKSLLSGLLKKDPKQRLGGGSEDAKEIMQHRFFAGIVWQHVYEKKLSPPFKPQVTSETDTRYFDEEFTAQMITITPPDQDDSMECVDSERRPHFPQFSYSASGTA
protein kinase B, sequence (P31749 whole entry): as above

Activity PKB (protein kinase B, P31749): 3 µM
Binder: RPRRSSF [AR 60003-53]

PKB IC50 (protein kinase B, P31749): 0.57 µM
Binder: RPR[Nle]E([βAla-SO2‑IQ])SF [PTR 6086]

% inhibition of kinase activity at 1 µM; PKB-kinase (spa) Assay 1 (protein kinase B): 0%
% inhibition of kinase activity at 1 µM; PKB-kinase (spa) Assay 2 (protein kinase B): 54%
Binder: RPR[Nle]E([βAla-X1])[Nva][hLeu] (not fully specified (C-terminus)) [TY-60020-96]

PKB IC50 (protein kinase B, P31749): 9 µM
Binder: RPR[Nle]E(SO2‑IQ)SF [PTR 6128]

PKB IC50 (protein kinase B, P31749): 10 µM
Binder: RPRT[Dap]SF (not fully specified (residue 5)) [PTR 6106]

IC50 PKB (protein kinase B, P31749): 20 nM
PKB IC50 (protein kinase B, P31749): 0.02 µM
Binder: RPR[Orn]E(SO2‑IQ)SF [PTR 6132]

IC50 PKB (protein kinase B, P31749): 100 nM
PKB IC50 (protein kinase B, P31749): 0.1 µM
Binder: RPRTE(S‑IQ)SF [PTR 6104]

Activity PKB (protein kinase B, P31749): 3 µM
PKB IC50 (protein kinase B, P31749): 4 µM
Binder: RPRTS[Abu]F-{O‑CO‑N‑SO2‑IQ} (not fully specified; printed as Arg-Pro-Arg-Thr-Ser-Abu-Phe-(O-CO-N-SO2-IQ)) [PTR 6013]

% inhibition of kinase activity at 1 µM; PKA-kinase Assay 1 [1]: 99%
% inhibition of kinase activity at 1 µM; PKA-kinase Assay 2 [1]: 99%
IC50 PKA [1]: 50 nM
% inhibition of kinase activity at 1 µM; PKB-kinase (spa) Assay 1 (protein kinase B): 80%
% inhibition of kinase activity at 1 µM; PKB-kinase (spa) Assay 2 (protein kinase B): 86%
IC50 PKB (protein kinase B): 110 nM
Binder: RPR[Orn]E([Gly-X1])[Dab][hLeu] (not fully specified (C-terminus)) [TY-60020-42]

% inhibition of kinase activity at 1 µM; PKB-kinase (spa) Assay 1 (protein kinase B): -12%
% inhibition of kinase activity at 1 µM; PKB-kinase (spa) Assay 2 (protein kinase B): 58%
Binder: RPR[Nle]E([βAla-X1])AF (not fully specified (C-terminus)) [TY-60020-93]

PKB IC50 (protein kinase B, P31749): 0.217 µM
Binder: RPR[Nva]E(S‑IQ)SF [PTR 6134]

Activity PKB (protein kinase B, P31749): > 20 µM
PKB IC50 (protein kinase B, P31749): 18 µM
B1: PTR 6020 (peptide)
peptide: RPRTS[Abu]F
modifications: not fully specified (C-terminus); printed as Arg-Pro-Arg-Thr-Ser-Abu-Phe-(O-CO-N-bAla-SO2-IQ); also: -(O-CO-N-bAla-SO2-IQ) on Phe7, attachment unclear

Activity PKB (protein kinase B, P31749): 5 µM
Binder: RPRTS[Dap][hLeu] [TY 60002-96]

% Inhibition PKA [1]: 4%
% Inhibition PKB I (protein kinase B): 43%
% Inhibition PKB II (protein kinase B): 44%
Binder: RPRT[GlyNH2]A[hLeu] [60005-32]

PKB IC50 (protein kinase B, P31749): 5.54 µM
Binder: RPRTE([βAla-SO2‑IQ])SF [PTR 6082]

% Inhibition PKA [1]: -2%
IC50 µM PKA [1]: 80 µM
% Inhibition PKB I (protein kinase B): 43%
IC50 µM PKB (protein kinase B): 18 µM
Binder: RPR[Nva]SAF [60002-38]

% inhibition at 1 µM (protein kinase B, P31749): 70%
Activity PKB (protein kinase B, P31749): < 1 µM
Binder: RPR[Nle]SS[Nle] [AR 60003-62]

PKB IC50 (protein kinase B, P31749): 5 µM
Binder: RPR[Nva]E([βAla-SO2‑IQ])A[hLeu] [PTR 6152]

% Inhibition PKA [1]: -4%
% Inhibition PKB I (protein kinase B): 70%
% Inhibition PKB II (protein kinase B): 70%
Binder: RPR[Nva]S[GlyNH2][hLeu] [60005-75]

% Inhibition PKA [1]: 7%
% Inhibition PKB I (protein kinase B): 39%
% Inhibition PKB II (protein kinase B): 48%
Binder: RPR[Nva]TA[hLeu] [60005-84]

Activity PKB (protein kinase B, P31749): 2.5 µM
Binder: RPR[Orn]SSF [AR 60003-52]

PKB IC50 (protein kinase B, P31749): 9.5 µM
Binder: RPRTD(SO2‑IQ)SF [PTR 6130]

PKB IC50 (protein kinase B, P31749): 5.6 µM
Binder: RPRTE([Ava-SO2‑IQ])SF [PTR 6090]

% Inhibition PKB I (protein kinase B, P31749): 44%
Activity PKB (protein kinase B, P31749): 5 µM
IC50 µM PKB (protein kinase B, P31749): 34 µM
Binder: RPRTS[Abu][hLeu] [TY 60002-73]

PKB IC50 (protein kinase B, P31749): 1.18 µM
Binder: RPR[Orn]E([bGaba-SO2‑IQ])SF (reading uncertain) [PTR 6088]

% Inhibition PKB I (protein kinase B, P31749): 42%
% Inhibition PKB II (protein kinase B, P31749): 42%
Binder: RPR[Nva][GlyNH2][GltNH2][hLeu] (reading uncertain) [60006-16A]

% Inhibition PKB I (protein kinase B, P31749): 96%
% Inhibition PKB II (protein kinase B, P31749): 93%
IC50 µM PKB (protein kinase B, P31749): 2.4 µM
Binder: RPRTS[GlyNH2]F [60005-5]

% inhibition of kinase activity at 1 µM; PKA-kinase Assay 1 [1]: 98%
% inhibition of kinase activity at 1 µM; PKA-kinase Assay 2 [1]: 99%
IC50 PKA [1]: 50 nM
% inhibition of kinase activity at 1 µM; PKB-kinase (spa) Assay 1 (protein kinase B): 89%
% inhibition of kinase activity at 1 µM; PKB-kinase (spa) Assay 2 (protein kinase B): 93%
IC50 PKB (protein kinase B): 120 nM
Binder: RPR[Nle]E([Gly-X1])[Dab][hLeu] (not fully specified (C-terminus)) [TY-60020-58]

% Inhibition PKB I (protein kinase B, P31749): 62%
Activity PKB (protein kinase B, P31749): 5 µM
Binder: RPRTSA[hLeu] [TY 60002-50]

PKB IC50 (protein kinase B, P31749): 0.413 µM
Binder: RPR[Nle]E([βAla-SO2‑IQ])[Dab]F [PTR 6140]

% Inhibition PKA [1]: 11%
IC50 µM PKA [1]: > 100 µM
% Inhibition PKB I (protein kinase B): 47%
% Inhibition PKB II (protein kinase B): 52%
IC50 µM PKB (protein kinase B): 9.45 µM
Binder: RPR[Nva]GA[hLeu] [60006-18A]

PKB IC50 (protein kinase B, P31749): 0.114 µM
Binder: RPR[Nle]E(S‑IQ)SF [PTR 6136]

% Inhibition PKB I (protein kinase B, P31749): 47%
% Inhibition PKB II (protein kinase B, P31749): 43%
IC50 µM PKB (protein kinase B, P31749): 10 µM
Binder: RPR[Nva][GlyNH2]A[hLeu] [60006-5A]

PKB IC50 (protein kinase B, P31749): 0.93 µM
Binder: RPR[Nle]E([βAla-SO2‑IQ])S[Nle] [PTR 6096]

IC50 PKB (protein kinase B, P31749): 300 nM
PKB IC50 (protein kinase B, P31749): 0.3 µM
Binder: RPRTE([βAla-S‑IQ])SF [PTR 6102]

PKB IC50 (protein kinase B, P31749): 2 µM
Binder: RPR[Nle]E([βAla-SO2‑IQ])[Abu]F [PTR 6138]

Activity PKB (protein kinase B, P31749): 25 µM
PKB IC50 (protein kinase B, P31749): 25 µM
Binder: RPRTSE(SO2‑IQ)F [PTR 6014]

% Inhibition PKA [1]: -3%
% Inhibition PKB I (protein kinase B): 40%
Binder: RPRT[Abu][Dap]F [60002-88]

% inhibition of kinase activity at 1 µM; PKA-kinase Assay 1 [1]: 92%
% inhibition of kinase activity at 1 µM; PKA-kinase Assay 2 [1]: 93%
IC50 PKA [1]: 200 nM
% inhibition of kinase activity at 1 µM; PKB-kinase (spa) Assay 1 (protein kinase B): 62%
% inhibition of kinase activity at 1 µM; PKB-kinase (spa) Assay 2 (protein kinase B): 75%
IC50 PKB (protein kinase B): 300 nM
Binder: RPR[Nle]E([Gly-X1])[Orn]F (not fully specified (C-terminus)) [TY-60020-59]

% inhibition of kinase activity at 1 µM; PKB-kinase (spa) Assay 1 (protein kinase B): 9%
% inhibition of kinase activity at 1 µM; PKB-kinase (spa) Assay 2 (protein kinase B): 31%
Binder: RPR[Nle]E([βAla-X1])A[hLeu] (not fully specified (C-terminus)) [TY-60020-94]

% Inhibition PKB I (protein kinase B, P31749): 51%
% Inhibition PKB II (protein kinase B, P31749): 44%
Binder: RPR[Nva][GlyNH2][Dap][Ph2] (reading uncertain) [60006-11B]

PKB IC50 (protein kinase B, P31749): 25 µM
Binder: RPR[Nva]E(SO2‑IQ)A[hLeu] [PTR 6150]

% inhibition of kinase activity at 1 µM; PKA-kinase Assay 1 [1]: 95%
% inhibition of kinase activity at 1 µM; PKA-kinase Assay 2 [1]: 96%
IC50 PKA [1]: 210 nM
% inhibition of kinase activity at 1 µM; PKB-kinase (spa) Assay 1 (protein kinase B): 92%
% inhibition of kinase activity at 1 µM; PKB-kinase (spa) Assay 2 (protein kinase B): 93%
IC50 PKB (protein kinase B): 70 nM
Binder: RPR[Nle]E([Gly-X1])[Dab]F (not fully specified (C-terminus)) [TY-60020-57]

Activity PKB (protein kinase B, P31749): 5 µM
Binder: RPRVS[Abu]F [TY 60002-61]

% Inhibition PKB I (protein kinase B, P31749): 53%
% Inhibition PKB II (protein kinase B, P31749): 47%
Binder: RPR[Nva][GlyNH2][Abu][hLeu] [60006-7B]

Activity PKB (protein kinase B, P31749): 0.9 µM
PKB IC50 (protein kinase B, P31749): 1 µM
Binder: RPRTE(SO2‑IQ)SF [PTR 6016]

Activity PKB (protein kinase B, P31749): 2.5 µM
Binder: RPRMSSF [AR 60003-50]

IC50 PKA [1]: 2000 nM
% inhibition of kinase activity at 1 µM; PKB-kinase (spa) Assay 1 (protein kinase B): 46%
% inhibition of kinase activity at 1 µM; PKB-kinase (spa) Assay 2 (protein kinase B): 90%
IC50 PKB (protein kinase B): 3300 nM
Binder: RPR[Nle]E([βAla-X1])[Nva]F (not fully specified (C-terminus)) [TY-60020-95]
